Data reported in the supplement of paper PMC9112550, “Optimization of the antimicrobial peptide Bac7 by deep mutational scanning” (BMC Biology, 2022).

tested on: Escherichia coli TOP10; assay: shrunken log2 fold change of peptide-encoding DNA abundance (4.5 h post-induction vs induction); higher = less antimicrobial activity (less host growth inhibition); conditions: time post-induction: 4.5 h; library: site-saturation at positions 5, 18, 19, 20
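Also: peptides expressed intracellularly from a pBAD plasmid library in pooled LB shake-flask culture, induced with 0.3% L-arabinose, DNA abundance read by NGS, three biological replicates, DESeq2 with apeglm shrinkage.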

Row | Sequence | shrunken log2 fold change
1 | RRIRTRPPRLPRPRPRPPTGPRP | 0.158
2 | RRIRVRPPRLPRPRPRPDFTPRP | -0.282
3 | RRIRFRPPRLPRPRPRPDKMPRP | 0.0125
4 | RRIRHRPPRLPRPRPRPEINPRP | -0.253
5 | RRIRDRPPRLPRPRPRPDVDPRP | 0.0482
6 | RRIRFRPPRLPRPRPRPAYEPRP | 0.0737
7 | RRIRRRPPRLPRPRPRPHSKPRP | -0.198
8 | RRIRVRPPRLPRPRPRPHKLPRP | -0.317
9 | RRIRKRPPRLPRPRPRPMDIPRP | 0.0655
10 | RRIRVRPPRLPRPRPRPDGKPRP | -0.0236
11 | RRIRGRPPRLPRPRPRPRQSPRP | 0.647
12 | RRIRNRPPRLPRPRPRPREWPRP | -0.00528
13 | RRIRHRPPRLPRPRPRPKGCPRP | 0.031
14 | RRIRYRPPRLPRPRPRPTYPPRP | 0.105
15 | RRIRARPPRLPRPRPRPGTGPRP | 0.158
16 | RRIRTRPPRLPRPRPRPADVPRP | -0.391
17 | RRIRERPPRLPRPRPRPRDYPRP | -0.521
18 | RRIRLRPPRLPRPRPRPHEMPRP | -0.377
19 | RRIRHRPPRLPRPRPRPKKSPRP | -0.0145
20 | RRIRHRPPRLPRPRPRPKTQPRP | -0.15
21 | RRIRGRPPRLPRPRPRPDGCPRP | 0.792
22 | RRIRTRPPRLPRPRPRPSPPPRP | -0.0898
23 | RRIRTRPPRLPRPRPRPYGAPRP | -0.0628
24 | RRIRRRPPRLPRPRPRPHLWPRP | 0.25
25 | RRIRKRPPRLPRPRPRPSFDPRP | 0.301

Row | Sequence | shrunken log2 fold change
26 | RRIRFRPPRLPRPRPRPAIGPRP | -0.0142
27 | RRIRQRPPRLPRPRPRPCRRPRP | 0.00897
28 | RRIRARPPRLPRPRPRPDYSPRP | 0.00409
29 | RRIRYRPPRLPRPRPRPNVCPRP | 0.00285
30 | RRIRERPPRLPRPRPRPTAIPRP | 0.32
31 | RRIRMRPPRLPRPRPRPTENPRP | 0.772
32 | RRIRARPPRLPRPRPRPFAVPRP | 0.129
33 | RRIRHRPPRLPRPRPRPPMLPRP | 0.0935
34 | RRIRWRPPRLPRPRPRPNKSPRP | 0.0866
35 | RRIRVRPPRLPRPRPRPRIYPRP | -0.15
36 | RRIRERPPRLPRPRPRPTDGPRP | 0.158
37 | RRIRSRPPRLPRPRPRPFTAPRP | -0.492
38 | RRIRGRPPRLPRPRPRPFQEPRP | 0.0152
39 | RRIRLRPPRLPRPRPRPYPAPRP | -0.368
40 | RRIRYRPPRLPRPRPRPNNCPRP | -0.0707
41 | RRIRARPPRLPRPRPRPIFHPRP | 0.183
42 | RRIRARPPRLPRPRPRPNGVPRP | -0.00122
43 | RRIRKRPPRLPRPRPRPHDFPRP | -0.0488
44 | RRIRTRPPRLPRPRPRPDLNPRP | 0.0685
45 | RRIRSRPPRLPRPRPRPYFCPRP | -0.354
46 | RRIRYRPPRLPRPRPRPKLFPRP | -0.0593
47 | RRIRYRPPRLPRPRPRPELRPRP | 0.363
48 | RRIRQRPPRLPRPRPRPKSDPRP | -0.2
49 | RRIRMRPPRLPRPRPRPFCWPRP | 0.421
50 | RRIRWRPPRLPRPRPRPCVHPRP | 0.0249

Row | Sequence | shrunken log2 fold change
51 | RRIRERPPRLPRPRPRPGQLPRP | -0.131
52 | RRIRVRPPRLPRPRPRPLGAPRP | 0.352
53 | RRIRYRPPRLPRPRPRPVLCPRP | -0.272
54 | RRIRFRPPRLPRPRPRPTCHPRP | -0.231
55 | RRIRLRPPRLPRPRPRPPYLPRP | -0.0206
56 | RRIRDRPPRLPRPRPRPGCHPRP | 0.15
57 | RRIRVRPPRLPRPRPRPKHYPRP | -0.459
58 | RRIRPRPPRLPRPRPRPFRYPRP | -0.0865
59 | RRIRFRPPRLPRPRPRPQWAPRP | 0.136
60 | RRIRPRPPRLPRPRPRPNVRPRP | -0.163
61 | RRIRPRPPRLPRPRPRPNADPRP | 0.0878
62 | RRIRERPPRLPRPRPRPDWCPRP | 0.0337
63 | RRIRVRPPRLPRPRPRPFTGPRP | -0.115
64 | RRIRGRPPRLPRPRPRPTEVPRP | 0.311
65 | RRIRWRPPRLPRPRPRPVTCPRP | -0.00133
66 | RRIRIRPPRLPRPRPRPGSHPRP | 0.141
67 | RRIRPRPPRLPRPRPRPIQQPRP | 0.000308
68 | RRIRVRPPRLPRPRPRPYCFPRP | -0.736
69 | RRIRVRPPRLPRPRPRPKNRPRP | 0.137
70 | RRIRYRPPRLPRPRPRPEMWPRP | 0.0929
71 | RRIRMRPPRLPRPRPRPAHKPRP | 0.534
72 | RRIRRRPPRLPRPRPRPWNLPRP | -0.269
73 | RRIRLRPPRLPRPRPRPTYSPRP | -0.572
74 | RRIRGRPPRLPRPRPRPELWPRP | 2.06
75 | RRIRPRPPRLPRPRPRPHFYPRP | -0.217

Row | Sequence | shrunken log2 fold change
76 | RRIRYRPPRLPRPRPRPWSMPRP | -0.221
77 | RRIRCRPPRLPRPRPRPVHLPRP | 0.0885
78 | RRIRYRPPRLPRPRPRPAYVPRP | -0.296
79 | RRIRGRPPRLPRPRPRPKKMPRP | 0.572
80 | RRIRNRPPRLPRPRPRPDELPRP | -0.134
81 | RRIRKRPPRLPRPRPRPGKFPRP | -0.174
82 | RRIRRRPPRLPRPRPRPWLHPRP | 0.333
83 | RRIRPRPPRLPRPRPRPWRLPRP | 0.0836
84 | RRIRPRPPRLPRPRPRPWDAPRP | 0.0508
85 | RRIRCRPPRLPRPRPRPKEMPRP | 0.0303
86 | RRIRFRPPRLPRPRPRPLHYPRP | -0.299
87 | RRIRLRPPRLPRPRPRPNLVPRP | -0.283
88 | RRIRDRPPRLPRPRPRPYRTPRP | -0.0206
89 | RRIRERPPRLPRPRPRPCARPRP | 0.0326
90 | RRIRIRPPRLPRPRPRPCYEPRP | -0.303
91 | RRIRKRPPRLPRPRPRPEQPPRP | 0.328
92 | RRIRYRPPRLPRPRPRPHPMPRP | -0.191
93 | RRIRVRPPRLPRPRPRPPMFPRP | -0.161
94 | RRIRIRPPRLPRPRPRPFRVPRP | -0.369
95 | RRIRRRPPRLPRPRPRPNRRPRP | 0.231
96 | RRIRRRPPRLPRPRPRPSIFPRP | -0.192
97 | RRIRSRPPRLPRPRPRPAQDPRP | 0.235
98 | RRIRPRPPRLPRPRPRPKDCPRP | 0.107
99 | RRIRTRPPRLPRPRPRPSQHPRP | -0.387
100 | RRIRLRPPRLPRPRPRPQIKPRP | -0.187

Row | Sequence | shrunken log2 fold change
101 | RRIRRRPPRLPRPRPRPKVPPRP | -0.0226
102 | RRIRVRPPRLPRPRPRPGVCPRP | 0.186
103 | RRIRPRPPRLPRPRPRPSHAPRP | -0.166
104 | RRIRMRPPRLPRPRPRPPRDPRP | 1.6
105 | RRIRTRPPRLPRPRPRPPSFPRP | 0.264
106 | RRIRHRPPRLPRPRPRPRRAPRP | 0.21
107 | RRIRDRPPRLPRPRPRPEFIPRP | 0.163
108 | RRIRTRPPRLPRPRPRPKFSPRP | -0.189
109 | RRIRRRPPRLPRPRPRPSPSPRP | 0.386
110 | RRIRPRPPRLPRPRPRPLRFPRP | 0.431
111 | RRIRDRPPRLPRPRPRPYGVPRP | 0.00737
112 | RRIRARPPRLPRPRPRPACGPRP | 0.582
113 | RRIRFRPPRLPRPRPRPWEDPRP | 0.0682
114 | RRIRGRPPRLPRPRPRPRMKPRP | 0.426
115 | RRIRFRPPRLPRPRPRPWYPPRP | -0.321
116 | RRIRHRPPRLPRPRPRPSVLPRP | -0.242
117 | RRIRMRPPRLPRPRPRPSAHPRP | 0.423
118 | RRIRDRPPRLPRPRPRPIPFPRP | -0.306
119 | RRIRLRPPRLPRPRPRPSYPPRP | -0.472
120 | RRIRPRPPRLPRPRPRPEQTPRP | 0.0268
121 | RRIRHRPPRLPRPRPRPTEYPRP | -0.301
122 | RRIRKRPPRLPRPRPRPPATPRP | 0.773
123 | RRIRERPPRLPRPRPRPGSQPRP | -0.196
124 | RRIRKRPPRLPRPRPRPTHAPRP | 0.505
125 | RRIRVRPPRLPRPRPRPAVAPRP | 0.266
